Results: patent US20180334702A1
No end group written: not given here. *: point of attachment. aminohexane = linker joining biotin to the N-terminal residue; Biotin = O=C1N[C@H]2[C@H](CS[C@H]2CCCCC(=O)*)N1

Target: CDK4/6
Assay: cell-based or functional assay
Settings: scale: relative value

{Biotin-aminohexane}-AMPWSPNPWWRGGGG [Polypeptide 2]
CDK4/6 Reactivity: 15

{Biotin-aminohexane}-GAPWSPNPWWRGGGG [Polypeptide 3]
CDK4/6 Reactivity: 33

{Biotin-aminohexane}-GMAWSPNPWWRGGGG [Polypeptide 4]
CDK4/6 Reactivity: 5

{Biotin-aminohexane}-GMPASPNPWWRGGGG [Polypeptide 5]
CDK4/6 Reactivity: 1

{Biotin-aminohexane}-GMPWSANPWWRGGGG [Polypeptide 6]
CDK4/6 Reactivity: 1

{Biotin-aminohexane}-GMPWSPAPWWRGGGG [Polypeptide 7]
CDK4/6 Reactivity: 8

{Biotin-aminohexane}-GMPWSPNAWWRGGGG [Polypeptide 8]
CDK4/6 Reactivity: 7

{Biotin-aminohexane}-GMPWSPNPAWRGGGG [Polypeptide 9]
CDK4/6 Reactivity: 7

{Biotin-aminohexane}-GMPWSPNPWARGGGG [Polypeptide 10]
CDK4/6 Reactivity: 15

{Biotin-aminohexane}-GMPWSPNPWWAGGGG [Polypeptide 11]
CDK4/6 Reactivity: 3

{Biotin-aminohexane}-GMPWSPNPWWRAGGG [Polypeptide 12]
CDK4/6 Reactivity: 6

{Biotin-aminohexane}-GMPFSPNPWWRGGGG [Polypeptide 13]
CDK4/6 Reactivity: 5

{Biotin-aminohexane}-GMPYSPNPWWRGGGG [Polypeptide 14]
CDK4/6 Reactivity: 5

{Biotin-aminohexane}-GMPWSWNPWWRGGGG [Polypeptide 15]
CDK4/6 Reactivity: 2

{Biotin-aminohexane}-GMPWSFNPWWRGGGG [Polypeptide 16]
CDK4/6 Reactivity: 2

{Biotin-aminohexane}-GMPWSYNPWWRGGGG [Polypeptide 17]
CDK4/6 Reactivity: 2

{Biotin-aminohexane}-GMPWSPNPWWHGGGG [Polypeptide A]
CDK4/6 Reactivity: 7

{Biotin-aminohexane}-GMPWSPNPWWKGGGG [Polypeptide B]
CDK4/6 Reactivity: 5

{Biotin-aminohexane}-GMWWSPNPWWRGGGG [Polypeptide C]
CDK4/6 Reactivity: 5

{Biotin-aminohexane}-GMFWSPNPWWRGGGG [Polypeptide D]
CDK4/6 Reactivity: 5

{Biotin-aminohexane}-GMYWSPNPWWRGGGG [Polypeptide E]
CDK4/6 Reactivity: 6

{Biotin-aminohexane}-AMPWSPAPAARAGGG [Polypeptide F]
CDK4/6 Reactivity: 7

{Biotin-aminohexane}-GMPWSPNPWWRGGGG [Polypeptide 1]
CDK4/6 Reactivity: 13
